Laboratory results taken from PMC8938253.

Target: rhAChE (recombinant human acetylcholinesterase) (Homo sapiens, UniProt P22303 32-614)
Assay: indirect ELISA

rhAChE (recombinant human acetylcholinesterase), sequence (P22303 32-614): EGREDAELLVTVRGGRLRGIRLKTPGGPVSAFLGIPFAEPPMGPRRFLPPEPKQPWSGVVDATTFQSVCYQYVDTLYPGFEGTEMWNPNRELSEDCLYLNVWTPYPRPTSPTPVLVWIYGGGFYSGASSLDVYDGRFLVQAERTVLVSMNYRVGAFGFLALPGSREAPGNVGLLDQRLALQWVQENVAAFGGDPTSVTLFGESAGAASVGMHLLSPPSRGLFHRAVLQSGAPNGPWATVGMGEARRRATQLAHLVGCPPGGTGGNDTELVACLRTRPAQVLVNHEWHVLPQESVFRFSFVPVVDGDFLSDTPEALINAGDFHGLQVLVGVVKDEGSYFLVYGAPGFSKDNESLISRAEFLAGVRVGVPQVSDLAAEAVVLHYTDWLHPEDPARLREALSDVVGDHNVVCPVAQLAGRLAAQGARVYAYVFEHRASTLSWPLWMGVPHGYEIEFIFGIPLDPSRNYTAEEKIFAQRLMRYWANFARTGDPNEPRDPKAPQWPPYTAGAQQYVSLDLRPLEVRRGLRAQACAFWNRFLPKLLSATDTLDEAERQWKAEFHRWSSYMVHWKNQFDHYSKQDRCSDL

B1: Ob2 (ssDNA)
DNA: TAATACGACTCACTATAGCAATGGTACGGTACTTCCCTTCGAAAACACCCTGCCCCTCACACAAAAGTGCACGCTACTTTGCTAA
  Kd: 17.1 ± 9.86 nM
